According to PMC8871097:

B1: Pea seed ferritin purified from pea seed milk boiled for 5 min (natural protein)
chain: TTAPLTGVIFEPFEEVKKDYLAVPSVPLVSLARQNFADECESVINEQINVEYNASYVYHSLFAYFDRDNVALKGFAKFFKESSEEHREHAEKLMKYQNTRGGRVVLHPIKDVPSEFEHVEKGDALYAMELALSLEKLTNEKLLNVHSVAERNNDLEMTHFIEGEYLAEQVEAIKKISEYVAQLRRVGKGHGVWHFDQRLLHGVHGA
modifications: not checked
B2: Pea seed ferritin purified from pea seed milk boiled for 10 min (natural protein)
chain: B1 chain
modifications: not checked

Key:
[1] = target: Pea seed ferritin purified from pea seed milk boiled for 5 min (Pisum sativum (pea)); experiment: native gel or EMSA; Native-PAGE, 5-20% gradient gel, samples not boiled, 180 V, 4 °C, Coomassie brilliant blue R-250; assembly state of the purified ferritin
[2] = target: Pea seed ferritin purified from pea seed milk boiled for 10 min (Pisum sativum (pea)); experiment: as above

Row | Binder | stoichiometry N [1] | stoichiometry N [2]
1 | B1 | 24 | 
2 | B2 |  | 24
